Our source for the stoichiometry N values is publication PMC9628817.

A word on the stoichiometry N: it is a count of units in the complex or per binding partner.

In assay [1] the target is CelA203, lichenase (β-1,3-1,4-glucanase) from Bacillus subtilis B110 (Bacillus subtilis B110). Description: SEC; FPLC, Enrich SEC 650 10 × 300 column, 20 mM Tris-HCl pH 7.0, 0.5 ml/min; calibrated with HMW native protein markers (66-669); polymer and monomer peaks. A general note: SEC sorts molecules by how far they enter the pores of the column.
For assay [2] the target is unchanged. Description: SDS-PAGE of unboiled sample, mass from a mobility (Rf) standard curve; purified CelA203, unboiled, 10% SDS-PAGE; tetramer band and weak monomer band; tetramer to monomers.

For “CelA203, lichenase (β-1,3-1,4-glucanase) from Bacillus subtilis B110 (enzyme)”, the stoichiometry N stood at 4 in assay [1] and 4.07 in assay [2].
